Test [1] has as its target T1, ATF2 (UniProt P15336 1-505, limits assumed).
T1 construct: Tested by co-immunoprecipitation with IRF1; no association
T1 sequence (looked up): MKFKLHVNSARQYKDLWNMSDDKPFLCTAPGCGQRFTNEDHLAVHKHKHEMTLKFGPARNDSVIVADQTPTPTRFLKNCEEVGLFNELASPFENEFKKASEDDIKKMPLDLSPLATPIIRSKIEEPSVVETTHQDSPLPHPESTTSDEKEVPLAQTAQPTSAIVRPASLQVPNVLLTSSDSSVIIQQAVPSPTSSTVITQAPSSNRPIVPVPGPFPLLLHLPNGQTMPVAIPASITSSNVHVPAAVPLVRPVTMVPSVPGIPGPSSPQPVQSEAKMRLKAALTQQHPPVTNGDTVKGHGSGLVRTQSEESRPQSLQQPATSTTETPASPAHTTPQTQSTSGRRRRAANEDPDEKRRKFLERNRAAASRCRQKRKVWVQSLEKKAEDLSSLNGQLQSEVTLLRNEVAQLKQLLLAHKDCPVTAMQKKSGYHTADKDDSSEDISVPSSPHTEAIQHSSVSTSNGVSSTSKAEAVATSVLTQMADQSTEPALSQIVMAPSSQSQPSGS
In words: co-immunoprecipitation from cell lysates, blot probed with anti-IRF1.

In test [2] the target is T2, HAT1 (UniProt O14929 2-419, limits assumed).
T2 construct: Tested by co-immunoprecipitation with IRF1; no association
T2 sequence (looked up): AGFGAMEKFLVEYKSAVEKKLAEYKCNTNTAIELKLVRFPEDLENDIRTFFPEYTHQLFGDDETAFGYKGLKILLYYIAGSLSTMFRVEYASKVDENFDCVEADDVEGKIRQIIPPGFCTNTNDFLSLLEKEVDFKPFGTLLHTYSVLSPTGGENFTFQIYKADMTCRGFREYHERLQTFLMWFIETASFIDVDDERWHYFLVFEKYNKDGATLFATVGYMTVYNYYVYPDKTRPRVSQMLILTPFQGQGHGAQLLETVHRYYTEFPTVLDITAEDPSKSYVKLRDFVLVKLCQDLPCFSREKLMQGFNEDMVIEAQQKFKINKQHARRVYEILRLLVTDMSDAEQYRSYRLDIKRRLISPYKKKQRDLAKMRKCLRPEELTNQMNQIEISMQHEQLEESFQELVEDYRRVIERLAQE
The description is as above.

B1: Interferon regulatory factor 1 (IRF1) (other, UniProt P10914 1-325, looked up)
chain: MPITRMRMRPWLEMQINSNQIPGLIWINKEEMIFQIPWKHAAKHGWDINKDACLFRSWAIHTGRYKAGEKEPDPKTWKANFRCAMNSLPDIEEVKDQSRNKGSSAVRVYRMLPPLTKNQRKERKSKSSRDAKSKAKRKSCGDSSPDTFSDGLSSSTLPDDHSSYTVPGYMQDLEVEQALTPALSPCAVSSTLPDWHIPVEVVPDSTSDLYNFQVSPMPSTSEATTDEDEEGKLPEDIMKLLEQSEWQPTNVDGKGYLLNEPGVQPTSVYGDFSCKEEPEIDSPGGDIGLSLQRVFTDLKNMDATWLDSLLTPVRLPSIQAIPCAP
notes: Endogenous protein from MonoMac6 lysates, detected with anti-IRF1 on the blot after co-immunoprecipitation
As to B1, the binding result in test [1] and in test [2] was “no binding” throughout.

For the origin of these results see patent publication US20160298120A1 (CHILDREN S HOSPITAL OF PHILADELPHIA, published 2016).
